B1: U3 small nucleolar ribonucleoprotein protein IMP4 (Homo sapiens), Q96G21 (parent)
chain: MLRREARLRREYLYRKAREEAQRSAQERKERLRRALEENRLIPTELRREALALQGSLEFDDAGGEGVTSHVDDEYRWAGVEDPKVMITTSRDPSSRLKMFAKELKLVFPGAQRMNRGRHEVGALVRACKANGVTDLLVVHEHRGTPVGLIVSHLPFGPTAYFTLCNVVMRHDIPDLGTMSEAKPHLITHGFSSRLGKRVSDILRYLFPVPKDDSHRVITFANQDDYISFRHHVYKKTDHRNVELTEVGPRFELKLYMIRLGTLEQEATADVEWRWHPYTNTARKRVFLSTE
partner: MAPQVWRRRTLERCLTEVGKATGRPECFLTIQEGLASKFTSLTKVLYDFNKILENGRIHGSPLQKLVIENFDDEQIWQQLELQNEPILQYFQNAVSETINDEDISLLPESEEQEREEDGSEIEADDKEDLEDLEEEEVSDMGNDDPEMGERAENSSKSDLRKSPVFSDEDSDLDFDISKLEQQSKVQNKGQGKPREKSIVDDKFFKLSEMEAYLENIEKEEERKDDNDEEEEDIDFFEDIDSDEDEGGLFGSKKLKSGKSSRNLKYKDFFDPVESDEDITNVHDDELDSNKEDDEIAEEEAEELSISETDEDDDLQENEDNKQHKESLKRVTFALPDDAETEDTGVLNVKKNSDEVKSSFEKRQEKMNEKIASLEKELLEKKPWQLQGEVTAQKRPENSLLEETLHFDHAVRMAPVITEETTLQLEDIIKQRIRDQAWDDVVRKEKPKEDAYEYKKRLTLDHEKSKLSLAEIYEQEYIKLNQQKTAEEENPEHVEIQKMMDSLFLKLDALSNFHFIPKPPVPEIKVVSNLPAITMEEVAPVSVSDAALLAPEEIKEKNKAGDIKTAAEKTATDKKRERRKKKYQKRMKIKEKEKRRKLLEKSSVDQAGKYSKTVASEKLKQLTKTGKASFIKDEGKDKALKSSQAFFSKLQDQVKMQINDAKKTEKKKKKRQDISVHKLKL

Variants of: B1
Conditions: with mpp10_human MPHOSPH10, O00566

effect of a mutation on the interaction	Variant
disrupting interaction strength	MLRREARLRREYLYRKAREEAQRSAQERKERLRRALEENRLIPTELRREALALQGSLEFDDAGGEGVTSHVDDEYRWAGVEDPKVMITTSRDPSSRLKMFAKELKLVFPGAQRMNRGRHEVGALVRACKANGVTDLLVVHEHRGTPVGLIVSHLPFGPTAYFTLCNVVMRHDIPDLGTMSEAKPHLITHGFSSRLGKRVSDILRYLFPVPKDDSHRVITFANQDDYISFRHHVYKKTDHRNVELTAVGPAFELKLYMIRLGTLEQEATADVEWRWHPYTNTARKRVFLSTE [E246A;R250A]
disrupting interaction strength	MLRREARLRREYLYRKAREEAQRSAQERKERLRRALEENRLIPTELRREALALQGSLEFDDAGGEGVTSHVDDEYRWAGVEDPKVMITTSRDPSSRLKMFAKELKLVFPGAQRMNRGRHEVGALVRACKANGVTDLLVVHEHRGTPVGLIVSHLPFGPAAYATLCNVVMRHDIPDLGTMSEAKPHLITHGFSSRLGKRVSDILRYLFPVPKDDSHRVITFANQDDYISFRHHVYKKTDHRNVELTEVGPRFELKLYMIRLGTLEQEATADVEWRWHPYTNTARKRVFLSTE [T159A;F162A]

From IntAct's records for PubMed 12655004
